In PMC7868722:

B1: 3Ala (structured_DNA)
DNA: GGTTGGTGTGGTTGG
modifications: T3: N3-carboxymethyl-dT amide with L-alanine
B2: TBA (HD1) (structured_DNA)
DNA: GGTTGGTGTGGTTGG
B3: 3L (structured_DNA)
DNA: GGTTGGTGTGGTTGG
modifications: T3: N3-propargyl-dT clicked to 1-beta-D-lactopyranosyl azide
B4: 3Phe (structured_DNA)
DNA: GGTTGGTGTGGTTGG
modifications: T3: N3-carboxymethyl-dT amide with L-phenylalanine
B5: 3Leu (structured_DNA)
DNA: GGTTGGTGTGGTTGG
modifications: T3: N3-carboxymethyl-dT amide with L-leucine
B6: 12Phe (structured_DNA)
DNA: GGTTGGTGTGGTTGG
modifications: T12: N3-carboxymethyl-dT amide with L-phenylalanine
B7: 12Ser (structured_DNA)
DNA: GGTTGGTGTGGTTGG
modifications: T12: N3-carboxymethyl-dT amide with L-serine
B8: 12L (structured_DNA)
DNA: GGTTGGTGTGGTTGG
modifications: T12: N3-propargyl-dT clicked to 1-beta-D-lactopyranosyl azide
B9: 3Nic (structured_DNA)
DNA: GGTTGGTGTGGTTGG
modifications: T3: N3-aminoalkyl-dT nicotinoyl amide
B10: 12Ala (structured_DNA)
DNA: GGTTGGTGTGGTTGG
modifications: T12: N3-carboxymethyl-dT amide with L-alanine
B11: 12Trp (structured_DNA)
DNA: GGTTGGTGTGGTTGG
modifications: T12: N3-carboxymethyl-dT amide with L-tryptophan
B12: 12G (structured_DNA)
DNA: GGTTGGTGTGGTTGG
modifications: T12: N3-propargyl-dT clicked to 1-beta-D-glucopyranosyl azide (printed glycopyranosyl)
B13: 3Ser (structured_DNA)
DNA: GGTTGGTGTGGTTGG
modifications: T3: N3-carboxymethyl-dT amide with L-serine
B14: 12Leu (structured_DNA)
DNA: GGTTGGTGTGGTTGG
modifications: T12: N3-carboxymethyl-dT amide with L-leucine
B15: 3Amide (structured_DNA)
DNA: GGTTGGTGTGGTTGG
modifications: T3: N3-carboxymethyl-dT amide
B16: 12Amide (structured_DNA)
DNA: GGTTGGTGTGGTTGG
modifications: T12: N3-carboxymethyl-dT amide
B17: 3NB (structured_DNA)
DNA: GGTTGGTGTGGTTGG
modifications: T3: N3-aminoalkyl-dT p-nitrobenzoyl amide
B18: 3G (structured_DNA)
DNA: GGTTGGTGTGGTTGG
modifications: T3: N3-propargyl-dT clicked to 1-beta-D-glucopyranosyl azide (printed glycopyranosyl)
B19: 3Bz (structured_DNA)
DNA: GGTTGGTGTGGTTGG
modifications: T3: N3-aminoalkyl-dT benzoyl amide

biological target: human alpha-thrombin (plasma) (Homo sapiens, UniProt P00734;P00734 328-363;364-622); assay: MST

In order of falling Kd:
1. B17  0.164 ± 0.0035 µM
2. B6  0.0991 ± 0.0063 µM
3. B7  0.0866 ± 0.0045 µM
4. B14  0.0722 ± 0.0009 µM
5. B11  0.0673 ± 0.0121 µM
6. B10  0.051 ± 0.0038 µM
7. B16  0.0306 ± 0.0061 µM
8. B19  0.03 ± 0.0066 µM
9. B15  0.0292 ± 0.0004 µM
10. B8  0.0272 ± 0.003 µM
11. B9  0.0271 ± 0.0042 µM
12. B4  0.0226 ± 0.0048 µM
13. B1  0.0214 ± 0.0028 µM
14. B12  0.0207 ± 0.0028 µM
15. B2  0.0202 ± 0.0013 µM
16. B13  0.0146 ± 0.0003 µM
17. B3  0.0116 ± 0.0005 µM
18. B5  0.0109 ± 0.0002 µM
19. B18  0.0098 ± 0.0006 µM
